Experimental data taken from the DeepSol protein solubility set.

Assay: soluble on expression in E. coli; label from the status in PepcDB or PDB records

| Sequence | soluble on expression in E. coli |
| --- | --- |
| MSKYWSNIVKKISPYVPGEQPKDKKYIKLNTNENPYPPSEKVLKAISAAVNESLRLYPDPACESLRNTLAKYYGIKASEVFVGNGSDELLAFSFMAFFNPGDTIIFPDITYSFYEVYSSMFSVNYRLIPLDDEFNVPVEEFFTENDGIILANPNAPTGKALPLQSIRKILEKNDDKVVIIDEAYVDFGARSSVPLIKEFENLLVIQTLSKSRALAGLRVGFALGSEQLIEGLDRVKNSINSYTLDRLALIGAEEAIKDHEYFCEIRDKIINTREWVSKKLSSMGFKVIESKANFIFISHPKINGRLLFEKYKENNILVRHFNSPRIDNFLRVSIGSDEEMNIFCEKTKEIIESLN | soluble |
| MGSDKIHHHHHHMKLWAIYFEPEDWVGFRETRRFSFSDRVESVFPSSFPFYGAVRTALLMKNQKFDPGDVERAGDVRMFGPFVFENTPEGRKHYFPLPRNIYKTDSGYRVTPIVEIDGVYLPWKPEYKMDSKESTSGGLIELSDLELLRSNTQGVCKFDLVSAEKIFKKETHIGVAFEENRKKVKERMIYSISYYRFYDGGFFMFTDDERTVELVSKLDGVFLGMKSKWSAVEVEELNTTAFDPPDYKNVAVALITPAVFDGGGMPKDKTILGKRVLTTAGIRKQVVSGWDLRENKPKKIYHAVSPGAVYYLEGKVNGHVLNESKFTDFGFGRCIFMKYEKL | not soluble |
| MGSDKIHHHHHHMPTIHFVDGEKGGVGKSLFARTMIQYCLDKRIPFVPVETDRSNPDVAGVYKEICKYAVFSENERQANKADRIFEWAIERPVIVNLAAQSHRAVQGWIESNQLLELGSSQGVMFCKWFISTGGYDSINLFTQSVNTYGEKIPHILVRNLGLCDDWEHLESDSNFQNIVNKYQIKVIDFPKLAYRERNIIDQNRLTFAEAREYKEFGIIGKQRVVNFLKLAYGAFEKVGIWYEKVE | not soluble |
| MFNNILVVCVGNICRSPTAERLLQRYHPELKVESAGLGALVGKGADPTAISVAAEHQLSLEGHCARQISRRLCRNYDLILTMEKRHIERLCEMAPEMRGKVMLFGHWDNECEIPDPYRKSRETFAAVYTLLERSARQWAQALNAEQV | not soluble |
| MGSDKIHHHHHHMSKSHAVVHSALADEASQHNNTLSWFDITPADQERVRSLAPIADHVGEEIIADFYAHILRFEDAAQQFADDTQIERVKRGQKKYFQELINAELDESYAEERKRIGGIHERAGITPTLYVGSYAYYLQRLSQSILENGKEDPHKLFGLVLSMMKIAHYDMALALETYVEAREKTIEIHERQMRELPTPVLELREGLLLVPVVGALDSHRARTLTMQLLDGIRDTRSRAVVLDITGAVSIDSSVANHLFQAMTAARLMGAKSILAGISPTVAQELFRIGVDTKTFTTARNLQQGIELAASALEAHSKHSV | not soluble |
| MGSDKIHHHHHHMTEKATLAKQILHFNETLSSNSMDLPAGYRVINPYEGDQKELVRNITTRFYQKYYNDTKPRRIIFGSSPARRGSAVTGVPFEDAKHLQSETGIFIDTFYINQSSSDFLYDVMNEYGGCEQFYSDFYMNFVCPLGIVRINAKGNEVNCNYYENKQLREALMPFIIESIRSQIDFGMDTSVCYCIGSGENFKFLSRINEEHHFFETIIPLEHPRFIMQYNSKNKDTYMEKYLCALKI | not soluble |
| MAHHHHHHMPLIEAHLPALRPYIRYPVVAATGSFDVGRLQQYATVCPATYVIETITEALAELTRRMKWSFDLCGNFRDAADFAARGISFVALERATGNIAAGASSFCICDGGVEVGVETAESHQRRGLALACSARLILERLKHGLYPNWDAHVPHSAHLAEKLGYTRGTPYKAYVDELQT | not soluble |
| MSDAFLSSIKNRRTIYALDKQLPVSQEKIVELVKEAVSHSPSAFNSQSSRVVVLFGAEHEQFWNIAKDELKKIVPADAFAATETKLNSFAAGAGTVLFFEDQTVVRQLQEQFALYADNFPVWSEQASGMAQFAVWTALAEHKVGASLQHYNPLVDAQTHKTWNLPESWKLRAQMPFGAIAAPAGEKAFIAESERFKVFGN | not soluble |
| MGSSHHHHHHSSGLVPRGSHMQQKLTSPDNNLVMTFQVDSKGAPTYELTYKNKVVIKPSTLGLELKKEDNTRTDFDWVDRRDLTKLDSKTNLYDGFEVKDTQTATFDETWQPVWGEEKEIRNHYNELAVTLYQPMNDRSIVIRFRLFNDGLGFRYEFPQQKSLNYFVIKEEHSQFGMNGDHIAFWIPGDYDTQEYDYTISRLSEIRGLMKEAITPNSSQTPFSQTGVQTALMMKTDDGLYINLHEAALVDYSCMHLNLDDKNMVFESWLTPDAKGDKGYMQTPCNTPWRTIIVSDDARNILASRITLNLNEPCKIADAASWVKPVKYIGVWWDMITGKGSWAYTDELTSVKLGETDYSKTKPNGKHSANTANVKRYIDFAAAHGFDAVLVEGWNEGWEDWFGNSKDYVFDFVTPYPDFDVKEIHRYAARKGIKMMMHHETSASVRNYERHMDKAYQFMADNGYNSVKSGYVGNIIPRGEHHYGQWMNNHYLYAVKKAADYKIMVNAHEATRPTGICRTYPNLIGNESARGTEYESFGGNKVYHTTILPFTRLVGGPMDYTPGIFETHCNKMNPANNSQVRSTIARQLALYVTMYSPLQMAADIPENYERFMDAFQFIKDVALDWDETNYLEAEPGEYITIARKAKDTDDWYVGCTAGENGHTSKLVFDFLTPGKQYIATVYADAKDADWKENPQAYTIKKGILTNKSKLNLHAANGGGYAISIKEVKDKSEAKGLKRL | soluble |
| MFKKLFGKGKEVQKDIAIYAPLTGEFVKIEDIPDPVFAQKMMGEGFGINPTEGEVVSPIAGRVDNVFPTKHAIGLKADNGLELLVHIGLDTVQLDGEGFEVLVSSGDEVNVGDPLVRFNLEYINNNAKSVISPIIITNTDQAASINIYDENAVIKGETKVIDVTMN | not soluble |
| MTNKREDVRNIAIIAHVDHGKTTLVDELLKQSGIFRENEHVDERAMDSNDIERERGITILAKNTAVDYKGTRINILDTPGHADFGGEVERIMKMVDGVVLVVDAYEGTMPQTRFVLKKALEQNLKPVVVVNKIDKPSARPEGVVDEVLDLFIELEANDEQLEFPVVYASAVNGTASLDPEKQDDNLQSLYETIIDYVPAPIDNSDEPLQFQVALLDYNDYVGRIGIGRVFRGKMRVGDNVSLIKLDGTVKNFRVTKIFGYFGLKRLEIEEAQAGDLIAVSGMEDINVGETVTPHDHQEALPVLRIDEPTLEMTFKVNNSPFAGREGDFVTARQIQERLNQQLETDVSLKVSNTDSPDTWVVAGRGELHLSILIENMRREGYELQVSKPQVIIKEIDGVMCEPFERVQCEVPQENAGAVIESLGARKGEMVDMTTTDNGLTRLIFNVPARGMIGYTTEFMSMTRGYGIINHTFEEFRPRIKAQIGGRRNGALISMDQGSASTYAILGLEDRGVNFMEPGTEVYEGMIVGEHNRENDLTVNITKTKHQTNVRSATKDQTQTMNRPRILTLEEALQFINDDELVVVTPESIRLRKKILNKNVREKEAKRIKQMMQENE | not soluble |
| SLDSIELMAKIHASARWSEAALQILADETRRILKHEAGTRAGEDPEQLHQMRVGIRRLRSALRLFEPALKLPKPARRRSLSPLAAVLGSVRDLDVQMEMLRERYLGALPEGEQQALERLLAHLESLRTQARSAMLRYLDGLDYEQFKSAYTEFLESPKFRRGADESLYHLLPAFLREALSTLWAHPGWEEPDVETMHDLRIAVKRVRYNLEFFLGCYGKAVRSLHGELKRIQEELGIIHDCDVLLGQLHTEPLGPATPWQQPFSRLTALVRNERRNAVRRFRRLKTRLLSEDMRNSLAVWVSWPGTADD | soluble |
| MKTAEAAKGRWPEILEHFDLPPITGKNHYRGECPVCGARGKFRIDDRDGAGTWICVCGSGDGMKLVTLTQGKPFNEICTEIDRLIGNDYQRVKIPVNSSATSLRKRVLSKFSKLEALRGTSGAAYLNSRGIFNLPAEAIRFNARQRHNGCVFQSLYSLATDDKGELCYLHQTLLDGAKKADIGSSSKRLKSLQEDNYLDHARSVAIRMFPVASTLGIAEGIETALSAHQIYKVNTWATINSGFMKKFRVPAGVLHLIIFADRDENSATGLAAAYECAHANLMAKNDLQRVSVYWPDHGDFNNMLMNGDQVRELVFHKKKVAA | not soluble |
| MSLKANNLLSQFGDHRQRVQSAITAVCEGRGILLVDDENRENEGDLIFSAQSMTEADMAIMIRHCSGIVCLCITEEKARQLNLPLMVEQNTSKYGTAFTISIEAAEGVTTGVSAADRIQTIRTAIAPNATPESLHHPGHIFPLIARSGGIKERSGHTEGSIDLMKLAGLAPCAVLCELTNDDGTMARLPEIIKFGLEHKYPVVTINDLKEYQTAPDFLPKLVGSFSCPAAENPTTAIMEAAFRHHYMHYRYINCEVGPENLAAAIQGAKAMGWRGFNCSLPNKVEIIRYLDELGESAKIIGAVNTVVIGDDQRATGENTDGKGFVKAISEIITIQDKKIALLGAGGAARAIAVEMALAGVKEITILNRNRDKGQALADLLNSQTVATARFVLWDHPYRFSTDIDIVINATSVGLYSNVDQRLNIDTDTLLPHMVVADCIPNPVYTQLLRDAVRRGCCHVLPGMKMLVYQAVIAIKYWSGVDVDPDIMLEKLKEVVKEGHHHHHH | soluble |
| MKNIKDEWVQIALDLTSGLSSKDRFERLLSTIRNALKCDASALLLFKNQYFSPLATNGLDGDVIGRRFAISQHPRLEAIARAGDIVRFPSDSDLPDPYDGLIANEERQLQVHSCIGLPLLVNERLIGAVTIDAFDPTQFDSFTNKELRIISALAATSLHTALLMERLENQS | not soluble |
| MGSDKIHHHHHHMNTITPISTRRVTLALQGGGSHGAFTWGVLDRLLEEPRLRIEAVSGTSAGAMNAACLAHGLADSGRQGARDTLERFWTAISNAAAFSPIRRSPLAIWLGNWSVADSMGYLMSTAFGRALSPYQSNPLNINPLRETVERIIDFDAVRACRDLSLFVTATNVHTGRPRIFTREDLSVDAVLASACLPHLFQAVEIDGVPYWDGGYVGNPALWPLIYETDVRDLLLVRINPLIREQTPMTGLEIADRLNEITFNASMFREMRAIAFVGRMLDEGSLDPERYKRMLIHAIEAEDDLKSLGASSKLNAELPFLFHLRDIGRRAADDWLTKNLEKIGYESTVDVASAYL | not soluble |
| MGSDKIHHHHHHMDREIFVSYSVSANSIAGWVAYGGSESFHDMSRGILAARIGIPRLLRMFRKFCIKSSWYVPGIVMETFPDEVRAIYADGHELGTHGYLHEYAPSMSYDQEERVIAKTAELVKDITGHNPYGHLPSQWEESVNTMRILMNHGYKYARGLEDDDFHPFYASTGRSWPRVDYSKLPETWMKPMNLGEKIDFVEIPINWFLNDGTYFNFNKHVPGKRPMSLSEVLENWKAAFDYVYREYEYAIFPVNIHPDTSGNPEVQIFHEKFISYILEHNGASFVSDSFIAEDFRKRYPFPHEFREKVDL | not soluble |
| AHHHHHHASAKWVCKICGYIYDEDAGDPDNGISPGTKFEELPDDWVCPICGAPKSEFEKLEDGSIEIRTHTALHVLKGAVVKVLGEGAKWTASVYVNGNHGRLTVKFNRKPTHEEIREIERLANEKIKENVPIQIYELSREEAEKIFGDEMYDLFPVPEHVRTLKVVVIEDWNVNACNKEHTKTTGEIGEIKIRKVRFRKSKELLEISFDVL | soluble |
| MGSDKIHHHHHHMQNLSPTQREILLALTDLYNRQKRMIKSKEVADIIGKDEGTVRNIILSLKVLGLVESKPGPNGGYMPTLKAYEIINNPTLTPILDKLNLYKGMIETDIKVENIEIIDITNPSANRVLLKVEGDLRKLKIGDAVRLGPTPYSRLVIEGLILHLDENSKEIVVDVKRMISIPKEKVKNLISKKLIALKPETSLREASMIFYKEAIRGAPVINQDEKVVGILTTADIIKAFFEGNYTAKVSDYMKTNVISINENEDLLDAIRKMIIYNVGRLLVLDSNNKAVGIVTRTDILRSIAGLEGLWTT | not soluble |
